Values quoted from earlier work in PMC12498412.
pKd: −log10 of the molar value.

Target: Barnase (Bacillus amyloliquefaciens) (UniProt P00648)
Sequence (P00648 48-157): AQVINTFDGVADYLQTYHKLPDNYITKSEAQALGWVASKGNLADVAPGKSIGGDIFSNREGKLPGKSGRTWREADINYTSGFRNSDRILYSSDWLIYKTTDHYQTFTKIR

Barstar, sequence (P11540 2-90): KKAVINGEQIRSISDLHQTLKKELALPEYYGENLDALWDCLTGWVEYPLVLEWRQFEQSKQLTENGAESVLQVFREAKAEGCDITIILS

Substance: Barstar (from UniProt P11540)
- pKd: 7.19
